± gives the uncertainty stated by the source.
Assay: protein stability index of a GFP-peptide fusion (yeast GPS) (PSI 1-4); higher = more stable; sorted into four equal gates, so the index is relative within each strain
Settings: doa10∆
Summary of the method: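 The protein stability index of a peptide was calculated by multiplying its read frequency in each gate by that gate's number and adding the products. The peptides were tiled 17-residue stretches of yeast proteins, fused downstream of GFP on a Cherry-expressing plasmid and carried in yeast as a pooled library. Mid-log cultures in leucine-free medium were sorted into four equal gates by GFP/Cherry ratio, and each gate's plasmids were PCR-amplified and Illumina-sequenced.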

Sequence	protein stability index
LNFYITNVPKAKKRKTL [SIR3]	1.97 ± 0.12
LNLFSNVLKAPFIKSES [SIR4]	1.67 ± 0.061
LNLSLHKLDLAKRNLDA [SMC2]	2.28 ± 0.046
LNSFVNDIFERIATEAS [HTB1]	2.95 ± 0.11
LNSLKDERSQGEKNFTS [SMC4]	3.41 ± 0.12
LNSMEKDRISHEVVQDD [PCI8]	2.61 ± 0.079
LNTVLIADLDTEAEETS [RRP43]	3.11 ± 0.08
LNVIIDQLAVSPEQIDA [YCS4]	2.19 ± 0.05
LNVTPSKRPQLGEIPNP [SIR4]	2.54 ± 0.072
LNVYHYFGENSSISWKN [YJL039C/NUP192]	1.79 ± 0.08
LNYGVYLNGTLIGSIRF [RET1]	1.43 ± 0.07
LPDGKNGNLEEEFAYVD [MED6]	3.41 ± 0.066
LPDPILKNFLSYESLKK [MCD1]	3 ± 0.094
LPGKVNTKEEFAAAPND [SNF5]	2.66 ± 0.084
LPTNPTLDKPNAEATKE [CSE2]	2.91 ± 0.072
LPYLSDTCAVSFDAVSD [YJR042W/NUP85]	2.44 ± 0.1
LQAIDLLENPNCFFDVI [DIS3]	2.48 ± 0.068
LQALKANDEEAYIKLLD [SNF2]	2.91 ± 0.093
LQAQDRAHRIGQKNEVR [SNF2]	3 ± 0.065
LQCPMLYVESTGKFVLQ [CSN12]	2.34 ± 0.12
LQDELHKVSSQSTNLNR [YCS4]	2.97 ± 0.061

Sequence	protein stability index
LQEIYQTDAIKSDEAKW [RPN5]	2.34 ± 0.09
LQIVNQLPANMVHLYSI [RPC17]	1.85 ± 0.043
LQKAVRGHVLQFEWHQN [SNF2]	1.27 ± 0.043
LQKEFLPHITQLEGFES [RPB2]	1.9 ± 0.047
LQLSKTPLSIKIMVAEW [SRB8]	2.31 ± 0.17
LQMRLKESEISHNENKM [YIL149C/MLP2]	2.94 ± 0.065
LQNSERDVELSSDELKV [SMC4]	2.84 ± 0.11
LQQQTPVTIWLFEQIGI [SME1]	1.66 ± 0.045
LQRQQRKSKLNLDNLQK [POP4]	2.72 ± 0.077
LQSDKNFLDNCLFENDL [ITC1]	2.13 ± 0.079
LQSLTSKGYVKTQFSWQ [RPS10A]	3.2 ± 0.1
LRADKLYEKLKQEIMMS [ISW2]	1.63 ± 0.14
LREVVELPLLSPERFAT [RPT1]	2.13 ± 0.084
LRKLKKMNNKPERFMVF [RPC53]	3.19 ± 0.099
LRKNKLGYARFILLDRL [SMC4]	1.15 ± 0.042
LRLRGGIIEPSLKALAS [RPL40A]	3.1 ± 0.046
LRNLHMKRMVAQWERSK [SNF12]	2.88 ± 0.076
LRPGQEISLKAHCILGI [RPC40]	2.12 ± 0.14
LRQKHEFLEDFDLVRNI [SMC2]	3.1 ± 0.11
LRQQQQQQDQPEQSEQP [RPN10]	3.21 ± 0.09
LRQQYEIELKKLPKVYK [SWI1]	2.04 ± 0.067

Sequence	protein stability index
LRRLEILVPDLYHLVIM [ECM29]	1.59 ± 0.054
LSAADIVAQSEVEVSTR [RPO31]	2.33 ± 0.09
LSCVKNDTISEDILQGI [NUT1]	2.69 ± 0.067
LSEFGIKKMLHLVWMKG [YCS4]	3.17 ± 0.17
LSESPVDFEKFETFLVD [SIN4]	3.03 ± 0.12
LSFTPTTVIGIRGSDQA [RPN2]	1.65 ± 0.089
LSGSISERIVDCIIRLP [FAS1]	1.35 ± 0.092
LSHENNVMLEKIKDNKE [RPT5]	2.49 ± 0.063
LSHYIRQCFQDNCCDFK [MED1]	2.78 ± 0.045
LSILKGDYSQATVLSRK [RPN5]	3.08 ± 0.07
LSKFFFFIFVFNFVLLG [COB]	1.42 ± 0.13
LSKLCVPVANQFINLAG [QCR7]	1.98 ± 0.059
LSLTTVPCDRIEKSRLF [SNF6]	2.51 ± 0.065
LSQPVSASKHEYSDNFP [SIR4]	2.24 ± 0.084
LSQQQKDAQKKDIEKLT [YIL149C/MLP2]	2.79 ± 0.079
LSRAEYDSDSDSSVEDS [LIN1]	3.14 ± 0.17
LSRGDDEVTIRRTVGLK [SMC3]	3.17 ± 0.096
LSSIAERVRNFAVIYLC [DIB1]	1.51 ± 0.083
LSSMRFKPSQEPEFHAL [RRI1]	2.58 ± 0.053
LSTDATSADLKSKAEEL [UBP6]	3.17 ± 0.24
LSTSAFMEIVLEYNVAL [YML031W/NDC1]	1.98 ± 0.037

Sequence	protein stability index
LTADYDALDIANRIGYI [RPL25]	3.33 ± 0.045
LTEQIRELREVIELPLK [RPT4]	2.69 ± 0.14
LTGEWSTKFDYPPMPFD [FAS1]	2.85 ± 0.056
LTGTVVSTKMHRTIVIR [RPS11A]	2.06 ± 0.063
LTLTDSQLAQVAAFVNN [BRR2]	2.14 ± 0.084
LTNQQPKNLSTPSTSSN [CSE2]	2.94 ± 0.067
LTRFSHDADLEVSMNSI [RPN1]	3.24 ± 0.099
LTSPAFGPHVDVNDVLT [GRR1]	3.4 ± 0.085
LTTFANQVMMDRKIQGW [ARP7]	2.69 ± 0.081
LTTQFVTDKYTAKKTNR [YDL088C/ASM4]	2.74 ± 0.14
LTVENKLQFETDRLSTT [SMC1]	3.24 ± 0.077
LVDLKKELAELKVQKLS [RPL35A]	1.2 ± 0.066
LVESVDRFKPNLDIAKD [MED4]	3.37 ± 0.29
LVHGIFGAKMSRTLILS [SIN4]	1.8 ± 0.063
LVILKPDLNIDRNNSTN [SIN4]	2.73 ± 0.057
LVKDRKFLREVFVDGEA [RPO21]	3.1 ± 0.14
LVKIDDLSANQRETMKE [SMC1]	3.29 ± 0.083
LVQQIQKETQKVTKIWS [PRP28]	2.39 ± 0.06

Same assay, conditions: pdr5∆

Sequence	protein stability index
LNFYITNVPKAKKRKTL [SIR3]	1.86 ± 0.093
LNLFSNVLKAPFIKSES [SIR4]	1.75 ± 0.087
LNLSLHKLDLAKRNLDA [SMC2]	2.78 ± 0.043
LNSFVNDIFERIATEAS [HTB1]	2.89 ± 0.091
LNSLKDERSQGEKNFTS [SMC4]	3.3 ± 0.25
LNSMEKDRISHEVVQDD [PCI8]	2.69 ± 0.061
LNTVLIADLDTEAEETS [RRP43]	2.87 ± 0.065
LNVIIDQLAVSPEQIDA [YCS4]	2.44 ± 0.056
LNVTPSKRPQLGEIPNP [SIR4]	2.83 ± 0.066
LNVYHYFGENSSISWKN [YJL039C/NUP192]	2.76 ± 0.082
LNYGVYLNGTLIGSIRF [RET1]	2.29 ± 0.097
LPDGKNGNLEEEFAYVD [MED6]	3.44 ± 0.12
LPDPILKNFLSYESLKK [MCD1]	3.14 ± 0.091
LPGKVNTKEEFAAAPND [SNF5]	2.91 ± 0.061
LPTNPTLDKPNAEATKE [CSE2]	2.87 ± 0.062
LPYLSDTCAVSFDAVSD [YJR042W/NUP85]	2.63 ± 0.059
LQAIDLLENPNCFFDVI [DIS3]	2.29 ± 0.066
LQALKANDEEAYIKLLD [SNF2]	3.29 ± 0.1
LQAQDRAHRIGQKNEVR [SNF2]	3.17 ± 0.077
LQCPMLYVESTGKFVLQ [CSN12]	2.98 ± 0.12
LQDELHKVSSQSTNLNR [YCS4]	3.06 ± 0.068
LQEIYQTDAIKSDEAKW [RPN5]	2.5 ± 0.13
LQIVNQLPANMVHLYSI [RPC17]	1.9 ± 0.045
LQKAVRGHVLQFEWHQN [SNF2]	1.34 ± 0.063
LQKEFLPHITQLEGFES [RPB2]	1.84 ± 0.041
LQLSKTPLSIKIMVAEW [SRB8]	2.84 ± 0.072
LQMRLKESEISHNENKM [YIL149C/MLP2]	2.96 ± 0.068

Sequence	protein stability index
LQNSERDVELSSDELKV [SMC4]	3.12 ± 0.088
LQQQTPVTIWLFEQIGI [SME1]	1.87 ± 0.041
LQRQQRKSKLNLDNLQK [POP4]	3.22 ± 0.2
LQSDKNFLDNCLFENDL [ITC1]	3.03 ± 0.073
LQSLTSKGYVKTQFSWQ [RPS10A]	2.94 ± 0.096
LRADKLYEKLKQEIMMS [ISW2]	1.38 ± 0.18
LREVVELPLLSPERFAT [RPT1]	2.54 ± 0.07
LRKLKKMNNKPERFMVF [RPC53]	3.35 ± 0.14
LRKNKLGYARFILLDRL [SMC4]	1.25 ± 0.048
LRLRGGIIEPSLKALAS [RPL40A]	3.02 ± 0.048
LRNLHMKRMVAQWERSK [SNF12]	2.89 ± 0.1
LRPGQEISLKAHCILGI [RPC40]	2.49 ± 0.13
LRQKHEFLEDFDLVRNI [SMC2]	3.05 ± 0.098
LRQQQQQQDQPEQSEQP [RPN10]	3.28 ± 0.076
LRQQYEIELKKLPKVYK [SWI1]	1.75 ± 0.066
LRRLEILVPDLYHLVIM [ECM29]	1.54 ± 0.036
LSAADIVAQSEVEVSTR [RPO31]	2.53 ± 0.11
LSCVKNDTISEDILQGI [NUT1]	2.35 ± 0.073
LSEFGIKKMLHLVWMKG [YCS4]	3.47 ± 0.11
LSESPVDFEKFETFLVD [SIN4]	2.73 ± 0.21
LSFTPTTVIGIRGSDQA [RPN2]	1.61 ± 0.073
LSGSISERIVDCIIRLP [FAS1]	1.16 ± 0.09
LSHENNVMLEKIKDNKE [RPT5]	2.9 ± 0.054
LSHYIRQCFQDNCCDFK [MED1]	2.75 ± 0.052
LSILKGDYSQATVLSRK [RPN5]	3.02 ± 0.06
LSKFFFFIFVFNFVLLG [COB]	1.19 ± 0.12
LSKLCVPVANQFINLAG [QCR7]	2.13 ± 0.071

Sequence	protein stability index
LSLTTVPCDRIEKSRLF [SNF6]	2.64 ± 0.076
LSQPVSASKHEYSDNFP [SIR4]	2.34 ± 0.046
LSQQQKDAQKKDIEKLT [YIL149C/MLP2]	2.95 ± 0.069
LSRAEYDSDSDSSVEDS [LIN1]	2.96 ± 0.16
LSRGDDEVTIRRTVGLK [SMC3]	2.73 ± 0.083
LSSIAERVRNFAVIYLC [DIB1]	2.04 ± 0.11
LSSMRFKPSQEPEFHAL [RRI1]	2.75 ± 0.05
LSTDATSADLKSKAEEL [UBP6]	2.64 ± 0.13
LSTSAFMEIVLEYNVAL [YML031W/NDC1]	1.71 ± 0.052
LTADYDALDIANRIGYI [RPL25]	3.4 ± 0.062
LTEQIRELREVIELPLK [RPT4]	3.73 ± 0.27
LTGEWSTKFDYPPMPFD [FAS1]	2.96 ± 0.062
LTGTVVSTKMHRTIVIR [RPS11A]	2.25 ± 0.046
LTLTDSQLAQVAAFVNN [BRR2]	2.18 ± 0.099
LTNQQPKNLSTPSTSSN [CSE2]	2.84 ± 0.068
LTRFSHDADLEVSMNSI [RPN1]	3.14 ± 0.056
LTSPAFGPHVDVNDVLT [GRR1]	3.23 ± 0.062
LTTFANQVMMDRKIQGW [ARP7]	2.62 ± 0.059
LTTQFVTDKYTAKKTNR [YDL088C/ASM4]	2.83 ± 0.093
LTVENKLQFETDRLSTT [SMC1]	3.05 ± 0.05
LVDLKKELAELKVQKLS [RPL35A]	1.59 ± 0.097
LVESVDRFKPNLDIAKD [MED4]	3.33 ± 0.17
LVHGIFGAKMSRTLILS [SIN4]	1.41 ± 0.044
LVILKPDLNIDRNNSTN [SIN4]	2.23 ± 0.064
LVKDRKFLREVFVDGEA [RPO21]	3.46 ± 0.27
LVKIDDLSANQRETMKE [SMC1]	3.22 ± 0.091
